Test [1] has as its target T1, HA-LARP6 S348A/S409A mutant, full length (UniProt Q9BRS8 1-491, S348A | S409A).
T1 construct: LARP6 (La ribonucleoprotein domain family, member 6), full-length, with S348A and S409A; Made by QuickChange site-directed mutagenesis; expressed from adenovirus; source: HLFs (human lung fibroblasts), adenovirus-transduced, in lysate or in lysed microsomal fraction
T1 sequence (looked up): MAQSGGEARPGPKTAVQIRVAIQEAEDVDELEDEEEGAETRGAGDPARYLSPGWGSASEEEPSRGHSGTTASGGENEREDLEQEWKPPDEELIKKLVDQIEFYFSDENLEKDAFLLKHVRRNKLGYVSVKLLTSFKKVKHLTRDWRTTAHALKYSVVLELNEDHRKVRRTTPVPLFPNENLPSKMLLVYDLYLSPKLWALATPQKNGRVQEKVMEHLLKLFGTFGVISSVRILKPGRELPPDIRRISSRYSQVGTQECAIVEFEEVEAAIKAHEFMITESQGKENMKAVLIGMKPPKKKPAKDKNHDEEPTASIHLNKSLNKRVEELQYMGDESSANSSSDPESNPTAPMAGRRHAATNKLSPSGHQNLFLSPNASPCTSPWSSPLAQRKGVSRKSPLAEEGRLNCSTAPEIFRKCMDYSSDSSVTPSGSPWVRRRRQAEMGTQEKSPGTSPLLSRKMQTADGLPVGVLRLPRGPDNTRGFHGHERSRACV
Nature of the test: co-IP; HLFs transduced with HA-LARP6 adenovirus; lysate in 50 mM Tris-HCl pH 7.5, 150 mM NaCl, 0.5% NP-40, 1 mM DTT; IP with anti-HA antibody 3 h at 4 °C, protein A/G-agarose, blot with anti-STRAP; cells untreated, treated with rapamycin, or with raptor knockdown (shRNA). Conditions: partners not purified.

In test [2] the target is T2, wt HA-LARP6 (La ribonucleoprotein domain family, member 6), full length (UniProt Q9BRS8 1-491).
T2 construct: LARP6 (La ribonucleoprotein domain family, member 6), full-length, re-cloned from pcDNA3 into pAd-CMV-Track; In cells the protein is a mixture of phosphorylated isoforms; The construct is described in earlier work of the authors; also called wt LARP6; FL HA-LARP6; source: HLFs (human lung fibroblasts), adenovirus-transduced, in lysate or in lysed microsomal fraction
T2 sequence (looked up): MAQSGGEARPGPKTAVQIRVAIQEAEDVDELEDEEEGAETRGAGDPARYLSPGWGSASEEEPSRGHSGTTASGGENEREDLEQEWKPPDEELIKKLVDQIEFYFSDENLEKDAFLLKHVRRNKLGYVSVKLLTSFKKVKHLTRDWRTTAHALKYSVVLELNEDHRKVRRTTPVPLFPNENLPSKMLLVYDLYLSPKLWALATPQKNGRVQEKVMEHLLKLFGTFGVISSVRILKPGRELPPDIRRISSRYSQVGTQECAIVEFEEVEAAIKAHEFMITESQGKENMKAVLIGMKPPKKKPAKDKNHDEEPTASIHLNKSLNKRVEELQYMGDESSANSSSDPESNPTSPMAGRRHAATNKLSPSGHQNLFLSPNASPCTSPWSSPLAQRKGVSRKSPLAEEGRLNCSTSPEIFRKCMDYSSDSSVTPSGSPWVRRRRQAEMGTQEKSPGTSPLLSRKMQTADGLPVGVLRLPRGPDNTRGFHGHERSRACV
The test is described as above. Conditions: partners not purified.

B1: serine-threonine kinase receptor-associated protein (STRAP) (natural protein, human (endogenous in HLFs), UniProt Q9Y3F4 1-350, looked up)
chain: MAMRQTPLTCSGHTRPVVDLAFSGITPYGYFLISACKDGKPMLRQGDTGDWIGTFLGHKGAVWGATLNKDATKAATAAADFTAKVWDAVSGDELMTLAHKHIVKTVDFTQDSNYLLTGGQDKLLRIYDLNKPEAEPKEISGHTSGIKKALWCSEDKQILSADDKTVRLWDHATMTEVKSLNFNMSVSSMEYIPEGEILVITYGRSIAFHSAVSLDPIKSFEAPATINSASLHPEKEFLVAGGEDFKLYKYDYNSGEELESYKGHFGPIHCVRFSPDGELYASGSEDGTLRLWQTVVGKTYGLWKCVLPEEDSGELAKPKIGFPETTEEELEEIASENSDCIFPSAPDVKA
notes: STRAP, serine-threonine kinase receptor-associated protein, endogenous in human lung fibroblasts, detected with anti-STRAP antibody; source: endogenous, HLF lysate
As to B1, in test [1], the “STRAP pulled down relative to wt HA-LARP6” value was ~50 % less than wt HA-LARP6. The “fraction of STRAP pulled down after rapamycin relative to untreated cells” value in test [2] is ~0.33 fraction of untreated.
